# B1: NUP62 (protein, UniProt P37198 2-522, looked up)
# Nuclear pore glycoprotein p62: SGFNFGGTGAPTGGFTFGTAKTATTTPATGFSFSTSGTGGFNFGAPFQPATSTPSTGLFSLATQTPATQTTGFTFGTATLASGGTGFSLGIGASKLNLSNTAATPAMANPSGFGLGSSNLTNAISSTVTSSQGTAPTGFVFGPSTTSVAPATTSGGFSFTGGSTAQPSGFNIGSAGNSAQPTAPATLPFTPATPAATTAGATQPAAPTPTATITSTGPSLFASIATAPTSSATTGLSLCTPVTTAGAPTAGTQGFSLKAPGAASGTSTTTSTAATATATTTSSSSTTGFALNLKPLAPAGIPSNTAAAVTAPPGPGAAAGAAASSAMTYAQLESLINKWSLELEDQERHFLQQATQVNAWDRTLIENGEKITSLHREVEKVKLDQKRLDQELDFILSQQKELEDLLSPLEELVKEQSGTIYLQHADEEREKTYKLAENIDAQLKRMAQDLKDIIEHLNTSGAPADTSDPLQQICKILNAHMDSLQWIDQNSALLQRKVEEVTKVCEGRRKEQERSFRITFD
# B2: NID1 (protein, UniProt P14543 29-1247, looked up)
# Nidogen-1: LSRQELFPFGPGQGDLELEDGDDFVSPALELSGALRFYDRSDIDAVYVTTNGIIATSEPPAKESHPGLFPPTFGAVAPFLADLDTTDGLGKVYYREDLSPSITQRAAECVHRGFPEISFQPSSAVVVTWESVAPYQGPSRDPDQKGKRNTFQAVLASSDSSSYAIFLYPEDGLQFHTTFSKKENNQVPAVVAFSQGSVGFLWKSNGAYNIFANDRESVENLAKSSNSGQQGVWVFEIGSPATTNGVVPADVILGTEDGAEYDDEDEDYDLATTRLGLEDVGTTPFSYKALRRGGADTYSVPSVLSPRRAATERPLGPPTERTRSFQLAVETFHQQHPQVIDVDEVEETGVVFSYNTDSRQTCANNRHQCSVHAECRDYATGFCCSCVAGYTGNGRQCVAEGSPQRVNGKVKGRIFVGSSQVPIVFENTDLHSYVVMNHGRSYTAISTIPETVGYSLLPLAPVGGIIGWMFAVEQDGFKNGFSITGGEFTRQAEVTFVGHPGNLVIKQRFSGIDEHGHLTIDTELEGRVPQIPFGSSVHIEPYTELYHYSTSVITSSSTREYTVTEPERDGASPSRIYTYQWRQTITFQECVHDDSRPALPSTQQLSVDSVFVLYNQEEKILRYALSNSIGPVREGSPDALQNPCYIGTHGCDTNAACRPGPRTQFTCECSIGFRGDGRTCYDIDECSEQPSVCGSHTICNNHPGTFRCECVEGYQFSDEGTCVAVVDQRPINYCETGLHNCDIPQRAQCIYTGGSSYTCSCLPGFSGDGQACQDVDECQPSRCHPDAFCYNTPGSFTCQCKPGYQGDGFRCVPGEVEKTRCQHEREHILGAAGATDPQRPIPPGLFVPECDAHGHYAPTQCHGSTGYCWCVDRDGREVEGTRTRPGMTPPCLSTVAPPIHQGPAVPTAVIPLPPGTHLLFAQTGKIERLPLEGNTMRKTEAKAFLHVPAKVIIGLAFDCVDKMVYWTDITEPSIGRASLHGGEPTTIIRQDLGSPEGIAVDHLGRNIFWTDSNLDRIEVAKLDGTQRRVLFETDLVNPRGIVTDSVRGNLYWTDWNRDNPKIETSYMDGTNRRILVQDDLGLPNGLTFDAFSSQLCWVDAGTNRAECLNPSQPSRRKALEGLQYPFAVTSYGKNLYFTDWKMNSVVALDLAISKETDAFQPHKQTRLYGITTALSQCPQGHNYCSVNNGGCTHLCLATPGSRTCRCPDNTLGVDCIEQK
# B3: N-PAC (protein, UniProt Q49A26 1-553, looked up)
# Cytokine-like nuclear factor …: MAAVSLRLGDLVWGKLGRYPPWPGKIVNPPKDLKKPRGKKCFFVKFFGTEDHAWIKVEQLKPYHAHKEEMIKINKGKRFQQAVDAVEEFLRRAKGKDQTSSHNSSDDKNRRNSSEERSRPNSGDEKRKLSLSEGKVKKNMGEGKKRVSSGSSERGSKSPLKRAQEQSPRKRGRPPKDEKDLTIPESSTVKGMMAGPMAAFKWQPTASEPVKDADPHFHHFLLSQTEKPAVCYQAITKKLKICEEETGSTSIQAADSTAVNGSITPTDKKIGFLGLGLMGSGIVSNLLKMGHTVTVWNRTAEKCDLFIQEGARLGRTPAEVVSTCDITFACVSDPKAAKDLVLGPSGVLQGIRPGKCYVDMSTVDADTVTELAQVIVSRGGRFLEAPVSGNQQLSNDGMLVILAAGDRGLYEDCSSCFQAMGKTSFFLGEVGNAAKMMLIVNMVQGSFMATIAEGLTLAQVTGQSQQTLLDILNQGQLASIFLDQKCQNILQGNFKPDFYLKYIQKDLRLAIALGDAVNHPTPMAAAANEVYKRAKALDQSDNDMSAVYRAYIH
# B4: NEFM (protein, UniProt P07197 2-916, looked up)
# Neurofilament medium …: SYTLDSLGNPSAYRRVTETRSSFSRVSGSPSSGFRSQSWSRGSPSTVSSSYKRSMLAPRLAYSSAMLSSAESSLDFSQSSSLLNGGSGPGGDYKLSRSNEKEQLQGLNDRFAGYIEKVHYLEQQNKEIEAEIQALRQKQASHAQLGDAYDQEIRELRATLEMVNHEKAQVQLDSDHLEEDIHRLKERFEEEARLRDDTEAAIRALRKDIEEASLVKVELDKKVQSLQDEVAFLRSNHEEEVADLLAQIQASHITVERKDYLKTDISTALKEIRSQLESHSDQNMHQAEEWFKCRYAKLTEAAEQNKEAIRSAKEEIAEYRRQLQSKSIELESVRGTKESLERQLSDIEERHNHDLSSYQDTIQQLENELRGTKWEMARHLREYQDLLNVKMALDIEIAAYRKLLEGEETRFSTFAGSITGPLYTHRPPITISSKIQKPKVEAPKLKVQHKFVEEIIEETKVEDEKSEMEEALTAITEELAVSMKEEKKEAAEEKEEEPEAEEEEVAAKKSPVKATAPEVKEEEGEKEEEEGQEEEEEEDEGAKSDQAEEGGSEKEGSSEKEEGEQEEGETEAEAEGEEAEAKEEKKVEEKSEEVATKEELVADAKVEKPEKAKSPVPKSPVEEKGKSPVPKSPVEEKGKSPVPKSPVEEKGKSPVPKSPVEEKGKSPVSKSPVEEKAKSPVPKSPVEEAKSKAEVGKGEQKEEEEKEVKEAPKEEKVEKKEEKPKDVPEKKKAESPVKEEAVAEVVTITKSVKVHLEKETKEEGKPLQQEKEKEKAGGEGGSEEEGSDKGAKGSRKEDIAVNGEVEGKEEVEQETKEKGSGREEEKGVVTNGLDLSPADEKKGGDKSEEKVVVTKTVEKITSEGGDGATKYITKSVTVTQKVEEHEETFEEKLVSTKKVEKVTSHAIVKEVTQSD
# B5: NELL1 (protein, UniProt Q92832 22-810, looked up)
# Protein kinase C-binding …: FGMDPDLQMDIVTELDLVNTTLGVAQVSGMHNASKAFLFQDIEREIHAAPHVSEKLIQLFRNKSEFTILATVQQKPSTSGVILSIRELEHSYFELESSGLRDEIRYHYIHNGKPRTEALPYRMADGQWHKVALSVSASHLLLHVDCNRIYERVIDPPDTNLPPGINLWLGQRNQKHGLFKGIIQDGKIIFMPNGYITQCPNLNHTCPTCSDFLSLVQGIMDLQELLAKMTAKLNYAETRLSQLENCHCEKTCQVSGLLYRDQDSWVDGDHCRNCTCKSGAVECRRMSCPPLNCSPDSLPVHIAGQCCKVCRPKCIYGGKVLAEGQRILTKSCRECRGGVLVKITEMCPPLNCSEKDHILPENQCCRVCRGHNFCAEGPKCGENSECKNWNTKATCECKSGYISVQGDSAYCEDIDECAAKMHYCHANTVCVNLPGLYRCDCVPGYIRVDDFSCTEHDECGSGQHNCDENAICTNTVQGHSCTCKPGYVGNGTICRAFCEEGCRYGGTCVAPNKCVCPSGFTGSHCEKDIDECSEGIIECHNHSRCVNLPGWYHCECRSGFHDDGTYSLSGESCIDIDECALRTHTCWNDSACINLAGGFDCLCPSGPSCSGDCPHEGGLKHNGQVWTLKEDRCSVCSCKDGKIFCRRTACDCQNPSADLFCCPECDTRVTSQCLDQNGHKLYRSGDNWTHSCQQCRCLEGEVDCWPLTCPNLSCEYTAILEGECCPRCVSDPCLADNITYDIRKTCLDSYGVSRLSGSVWTMAGSPCTTCKCKNGRVCCSVDFECLQNN
# B6: NID2 (protein, UniProt Q14112 31-1375, looked up)
# Nidogen-2: LHPDELFPHGESWGDQLLQEGDDESSAVVKLANPLHFYEARFSNLYVGTNGIISTQDFPRETQYVDYDFPTDFPAIAPFLADIDTSHGRGRVLYREDTSPAVLGLAARYVRAGFPRSARFTPTHAFLATWEQVGAYEEVKRGALPSGELNTFQAVLASDGSDSYALFLYPANGLQFLGTRPKESYNVQLQLPARVGFCRGEADDLKSEGPYFSLTSTEQSVKNLYQLSNLGIPGVWAFHIGSTSPLDNVRPAAVGDLSAAHSSVPLGRSFSHATALESDYNEDNLDYYDVNEEEAEYLPGEPEEALNGHSSIDVSFQSKVDTKPLEESSTLDPHTKEGTSLGEVGGPDLKGQVEPWDERETRSPAPPEVDRDSLAPSWETPPPYPENGSIQPYPDGGPVPSEMDVPPAHPEEEIVLRSYPASGHTTPLSRGTYEVGLEDNIGSNTEVFTYNAANKETCEHNHRQCSRHAFCTDYATGFCCHCQSKFYGNGKHCLPEGAPHRVNGKVSGHLHVGHTPVHFTDVDLHAYIVGNDGRAYTAISHIPQPAAQALLPLTPIGGLFGWLFALEKPGSENGFSLAGAAFTHDMEVTFYPGEETVRITQTAEGLDPENYLSIKTNIQGQVPYVSANFTAHISPYKELYHYSDSTVTSTSSRDYSLTFGAINQTWSYRIHQNITYQVCRHAPRHPSFPTTQQLNVDRVFALYNDEERVLRFAVTNQIGPVKEDSDPTPGNPCYDGSHMCDTTARCHPGTGVDYTCECASGYQGDGRNCVDENECATGFHRCGPNSVCINLPGSYRCECRSGYEFADDRHTCILITPPANPCEDGSHTCAPAGQARCVHHGGSTFSCACLPGYAGDGHQCTDVDECSENRCHPAATCYNTPGSFSCRCQPGYYGDGFQCIPDSTSSLTPCEQQQRHAQAQYAYPGARFHIPQCDEQGNFLPLQCHGSTGFCWCVDPDGHEVPGTQTPPGSTPPHCGPSPEPTQRPPTICERWRENLLEHYGGTPRDDQYVPQCDDLGHFIPLQCHGKSDFCWCVDKDGREVQGTRSQPGTTPACIPTVAPPMVRPTPRPDVTPPSVGTFLLYTQGQQIGYLPLNGTRLQKDAAKTLLSLHGSIIVGIDYDCRERMVYWTDVAGRTISRAGLELGAEPETIVNSGLISPEGLAIDHIRRTMYWTDSVLDKIESALLDGSERKVLFYTDLVNPRAIAVDPIRGNLYWTDWNREAPKIETSSLDGENRRILINTDIGLPNGLTFDPFSKLLCWADAGTKKLECTLPDGTGRRVIQNNLKYPFSIVSYADHFYHTDWRRDGVVSVNKHSGQFTDEYLPEQRSHLYGITAVYPYCPTGRK
# Target: T1, HCV ORFs (Gal4-DB fusions) (Hepatitis C virus genotype 1b, UniProt Q9WMX2)
# T1 construct: expressed in transfected cells; host or cells: Saccharomyces cerevisiae MAV203 (IMAP1) / AH109 (IMAP2)
# Assay: not given
# Format: binding, HCV genotype 1b, isolate con1
# Conditions: HCV protein NS3 as bait; human protein as prey
# 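Wherever IMAP Y2H IMAP1 (number of IST) is given: yeast two-hybrid screens using HCV genotype 1b proteins fused to Gal4-DB as baits against prey cDNA libraries from human spleen and foetal brain, IMAP1 via transformation and IMAP2 via mating.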
# 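Wherever IMAP Y2H IMAP2 (number of IST) is given: yeast two-hybrid screens using HCV genotype 1b proteins fused to Gal4-DB as baits against prey cDNA libraries from human spleen and foetal brain, IMAP1 via transformation and IMAP2 via mating.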
# 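Wherever Interaction with viral protein is given: yeast two-hybrid screens using HCV genotype 1b proteins fused to Gal4-DB as baits against prey cDNA libraries from human spleen and foetal brain, IMAP1 via transformation and IMAP2 via mating.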
# T1 sequence (Q9WMX2 1027-1657): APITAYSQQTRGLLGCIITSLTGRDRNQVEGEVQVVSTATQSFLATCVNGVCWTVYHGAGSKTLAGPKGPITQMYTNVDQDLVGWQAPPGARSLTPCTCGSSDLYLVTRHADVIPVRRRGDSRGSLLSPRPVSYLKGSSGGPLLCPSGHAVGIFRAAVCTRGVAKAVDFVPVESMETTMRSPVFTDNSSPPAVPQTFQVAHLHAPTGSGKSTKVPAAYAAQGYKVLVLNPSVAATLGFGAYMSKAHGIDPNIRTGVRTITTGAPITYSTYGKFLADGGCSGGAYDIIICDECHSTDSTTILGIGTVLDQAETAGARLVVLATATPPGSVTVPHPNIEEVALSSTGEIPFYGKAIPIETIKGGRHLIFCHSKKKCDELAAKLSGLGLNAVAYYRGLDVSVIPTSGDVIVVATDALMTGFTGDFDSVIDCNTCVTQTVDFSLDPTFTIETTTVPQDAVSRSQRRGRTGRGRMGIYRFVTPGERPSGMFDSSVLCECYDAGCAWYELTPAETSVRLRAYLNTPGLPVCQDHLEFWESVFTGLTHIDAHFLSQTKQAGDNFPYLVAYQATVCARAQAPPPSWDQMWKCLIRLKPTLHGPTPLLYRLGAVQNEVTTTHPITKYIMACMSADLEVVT
Molecule,IMAP Y2H IMAP1 (number of IST),IMAP Y2H IMAP2 (number of IST)
B1,3,
B2,2,
B3,2,11
B4,1,
B5,3,
B6,2,

# Test system: HCV ORFs (Gal4-DB fusions)
# Assay: not given
# Format: binding, HCV genotype 1b, isolate con1
# Conditions: human protein listed by gene symbol; the value names the HCV protein it interacts with
row,Molecule,Interaction with viral protein
1,B1,NS3
2,B2,NS3
3,B3,NS3
4,B4,NS3
5,B5,NS3
6,B6,NS3

# Target: T2, HCV proteins (Hepatitis C virus genotype 1b, UniProt Q9WMX2)
# T2 construct: expressed in transfected cells
# Assay: Validation by Y2H pairwise matrices;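 further: yeast two-hybrid pairwise tests of interactions first found in Y2H screens of HCV bait proteins against human cDNA libraries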
# Format: binding
# Conditions: validation of interaction with HCV protein NS3
# Procedure: A comprehensive interactome map between HCV and cellular proteins was generated by Y2H screens. Twenty seven constructs encoding full-length HCV mature proteins or discrete domains were cloned using a recombination-based cloning system (10) (FIG. 6). Four independent screens were performed with each HCV bait protein, probing two distinct human cDNA libraries (Supplementary Methods). […] Two validation methods were used to assess the confidence of the IMAP Y2H dataset.
# T2 sequence (Q9WMX2 1027-1657): as above
row,Molecule,Y2H matrices
1,B1,+
2,B2,+
3,B3,+
4,B4,+
5,B5,+
6,B6,+

# Reference: patent publication US20110091994A1, “Methods for Screening Compounds for Treating and/or Preventing an Hepatitis C Virus Infection” (priority 2008, published 2011)
